Earlier results in US7235367B2, “Method using crystal structure of estrogen receptor-β complex” (Genetics Institute, LLC., priority 2000, dated 2007).

Target: ER-β (Homo sapiens, UniProt Q92731)
Settings: co-activator, ER-β versus ER-α

Sequence of ER-β (Q92731 whole entry): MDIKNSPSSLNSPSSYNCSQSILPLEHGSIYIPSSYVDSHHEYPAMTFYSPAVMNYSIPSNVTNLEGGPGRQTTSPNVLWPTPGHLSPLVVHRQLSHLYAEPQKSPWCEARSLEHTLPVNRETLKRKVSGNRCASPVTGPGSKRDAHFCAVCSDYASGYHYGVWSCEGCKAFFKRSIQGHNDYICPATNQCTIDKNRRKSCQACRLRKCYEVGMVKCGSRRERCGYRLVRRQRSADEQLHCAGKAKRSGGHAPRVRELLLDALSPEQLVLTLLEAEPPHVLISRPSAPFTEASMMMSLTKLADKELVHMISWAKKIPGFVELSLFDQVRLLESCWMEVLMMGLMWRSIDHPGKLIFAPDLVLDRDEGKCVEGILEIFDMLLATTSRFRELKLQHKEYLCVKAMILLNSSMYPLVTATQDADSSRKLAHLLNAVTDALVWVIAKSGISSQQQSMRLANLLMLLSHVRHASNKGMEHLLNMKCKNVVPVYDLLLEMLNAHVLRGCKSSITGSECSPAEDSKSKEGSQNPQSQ

preferential activation of ER subtype: preferentially activates ER-β
Substance: SRC-1: co-activator protein that preferentially activates ER-β
